Results: patent US20150038419A1 (US Dept. of Health and Human Services, published 2015)

Key:
[1] = molecular target: T1, elastase (human; for SPR purified from human sputum) (human, UniProt P08246 30-267); experiment: cell-based or functional assay
T1 sequence (looked up): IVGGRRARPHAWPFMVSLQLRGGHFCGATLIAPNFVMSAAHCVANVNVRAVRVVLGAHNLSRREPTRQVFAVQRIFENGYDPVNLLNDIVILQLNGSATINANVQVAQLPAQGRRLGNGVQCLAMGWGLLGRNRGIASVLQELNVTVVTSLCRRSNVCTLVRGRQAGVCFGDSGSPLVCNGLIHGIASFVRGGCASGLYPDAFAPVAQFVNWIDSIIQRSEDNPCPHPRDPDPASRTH

cathepsin G (human) [2] = molecular target: T2, cathepsin G (human) (human, UniProt P08311 21-244); experiment: cell-based or functional assay
T2 sequence (looked up): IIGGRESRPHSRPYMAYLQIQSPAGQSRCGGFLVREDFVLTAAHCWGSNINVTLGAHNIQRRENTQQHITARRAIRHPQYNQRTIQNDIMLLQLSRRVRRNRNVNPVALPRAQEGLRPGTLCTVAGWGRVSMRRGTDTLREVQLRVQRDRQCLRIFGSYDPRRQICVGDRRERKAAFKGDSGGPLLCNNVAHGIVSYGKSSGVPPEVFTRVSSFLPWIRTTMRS

plasmin (human) = plasmin (human) (human, UniProt P00747 97-810); experiment: cell-based or functional assay
Sequence of plasmin (human) (P00747 97-810): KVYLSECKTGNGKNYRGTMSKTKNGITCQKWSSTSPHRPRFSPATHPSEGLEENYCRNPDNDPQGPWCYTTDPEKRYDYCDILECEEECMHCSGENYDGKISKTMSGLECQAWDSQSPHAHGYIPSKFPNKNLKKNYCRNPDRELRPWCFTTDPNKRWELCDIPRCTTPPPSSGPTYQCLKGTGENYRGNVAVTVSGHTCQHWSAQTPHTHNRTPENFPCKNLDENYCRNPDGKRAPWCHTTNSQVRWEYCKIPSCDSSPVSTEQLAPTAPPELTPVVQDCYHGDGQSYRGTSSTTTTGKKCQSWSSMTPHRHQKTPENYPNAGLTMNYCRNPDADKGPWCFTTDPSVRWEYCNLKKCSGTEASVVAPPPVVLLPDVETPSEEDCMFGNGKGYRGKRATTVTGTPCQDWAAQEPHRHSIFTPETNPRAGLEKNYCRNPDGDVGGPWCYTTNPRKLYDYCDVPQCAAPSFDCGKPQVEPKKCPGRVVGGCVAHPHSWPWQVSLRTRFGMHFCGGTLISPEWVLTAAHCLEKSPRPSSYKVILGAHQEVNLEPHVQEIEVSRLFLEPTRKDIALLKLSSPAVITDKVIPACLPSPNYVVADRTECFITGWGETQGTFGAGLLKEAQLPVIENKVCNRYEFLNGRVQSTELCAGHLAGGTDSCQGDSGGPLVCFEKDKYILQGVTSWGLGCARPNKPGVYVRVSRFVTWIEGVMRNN

kallikrein (human) = kallikrein (human) (human, UniProt P03952 20-638, limits assumed); experiment: cell-based or functional assay
Sequence of kallikrein (human) (P03952 20-638 limits assumed): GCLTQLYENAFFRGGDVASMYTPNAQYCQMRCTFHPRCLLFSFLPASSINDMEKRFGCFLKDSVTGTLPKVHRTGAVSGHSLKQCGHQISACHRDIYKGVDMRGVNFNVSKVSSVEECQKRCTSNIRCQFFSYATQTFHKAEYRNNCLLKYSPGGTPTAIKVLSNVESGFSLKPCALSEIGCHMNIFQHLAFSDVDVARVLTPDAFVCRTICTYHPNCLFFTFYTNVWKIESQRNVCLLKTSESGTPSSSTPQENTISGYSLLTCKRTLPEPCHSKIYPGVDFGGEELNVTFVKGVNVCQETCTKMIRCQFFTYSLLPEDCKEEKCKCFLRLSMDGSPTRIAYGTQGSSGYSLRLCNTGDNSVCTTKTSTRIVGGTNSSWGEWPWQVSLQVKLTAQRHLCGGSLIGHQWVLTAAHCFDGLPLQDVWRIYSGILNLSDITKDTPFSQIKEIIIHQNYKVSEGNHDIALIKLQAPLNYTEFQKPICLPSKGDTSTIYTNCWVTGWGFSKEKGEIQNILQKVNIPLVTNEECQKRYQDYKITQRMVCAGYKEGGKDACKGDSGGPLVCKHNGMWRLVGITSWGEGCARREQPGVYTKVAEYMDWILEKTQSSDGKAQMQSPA

[3] = molecular target: trypsin (sequencing grade, Roche) (human); experiment: cell-based or functional assay
Sequence of trypsin (sequencing grade, Roche) (human) (P00760 24-246): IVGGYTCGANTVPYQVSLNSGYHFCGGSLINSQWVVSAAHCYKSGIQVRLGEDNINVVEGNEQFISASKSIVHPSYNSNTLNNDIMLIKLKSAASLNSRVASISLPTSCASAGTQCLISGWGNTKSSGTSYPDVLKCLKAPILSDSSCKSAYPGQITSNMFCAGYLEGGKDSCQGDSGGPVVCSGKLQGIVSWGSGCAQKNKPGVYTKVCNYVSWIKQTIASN

skin β-tryptase (human) = skin β-tryptase (human) (human, UniProt Q15661 31-275); experiment: cell-based or functional assay
Sequence of skin β-tryptase (human) (Q15661 31-275): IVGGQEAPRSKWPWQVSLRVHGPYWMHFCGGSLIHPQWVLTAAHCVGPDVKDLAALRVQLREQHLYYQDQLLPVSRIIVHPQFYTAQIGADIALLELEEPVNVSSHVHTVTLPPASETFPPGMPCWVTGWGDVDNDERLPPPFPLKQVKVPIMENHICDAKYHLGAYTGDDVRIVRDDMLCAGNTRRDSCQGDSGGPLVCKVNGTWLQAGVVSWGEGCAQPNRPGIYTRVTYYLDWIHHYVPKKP

[4] = molecular target: T3, human activated coagulation factor X (FXa) (human, UniProt P00742 41-179; P00742 235-488); experiment: cell-based or functional assay
T3 sequence (P00742 41-179 limits assumed, chain 1 of 2): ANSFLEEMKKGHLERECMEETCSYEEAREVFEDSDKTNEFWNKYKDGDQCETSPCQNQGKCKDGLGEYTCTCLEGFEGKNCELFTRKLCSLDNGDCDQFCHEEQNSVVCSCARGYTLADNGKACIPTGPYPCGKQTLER
T3 sequence (P00742 235-488 limits assumed, chain 2 of 2): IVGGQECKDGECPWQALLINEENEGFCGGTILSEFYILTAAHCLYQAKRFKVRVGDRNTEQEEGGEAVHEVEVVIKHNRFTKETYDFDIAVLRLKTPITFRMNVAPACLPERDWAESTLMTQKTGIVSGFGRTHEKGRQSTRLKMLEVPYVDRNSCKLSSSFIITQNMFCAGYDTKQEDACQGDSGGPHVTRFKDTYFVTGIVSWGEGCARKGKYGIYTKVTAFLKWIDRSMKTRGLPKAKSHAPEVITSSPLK

[5] = molecular target: coagulation Factor XIa (FXIa) (human, UniProt P03951 19-625); experiment: cell-based or functional assay
Sequence of coagulation Factor XIa (FXIa) (P03951 19-625 limits assumed): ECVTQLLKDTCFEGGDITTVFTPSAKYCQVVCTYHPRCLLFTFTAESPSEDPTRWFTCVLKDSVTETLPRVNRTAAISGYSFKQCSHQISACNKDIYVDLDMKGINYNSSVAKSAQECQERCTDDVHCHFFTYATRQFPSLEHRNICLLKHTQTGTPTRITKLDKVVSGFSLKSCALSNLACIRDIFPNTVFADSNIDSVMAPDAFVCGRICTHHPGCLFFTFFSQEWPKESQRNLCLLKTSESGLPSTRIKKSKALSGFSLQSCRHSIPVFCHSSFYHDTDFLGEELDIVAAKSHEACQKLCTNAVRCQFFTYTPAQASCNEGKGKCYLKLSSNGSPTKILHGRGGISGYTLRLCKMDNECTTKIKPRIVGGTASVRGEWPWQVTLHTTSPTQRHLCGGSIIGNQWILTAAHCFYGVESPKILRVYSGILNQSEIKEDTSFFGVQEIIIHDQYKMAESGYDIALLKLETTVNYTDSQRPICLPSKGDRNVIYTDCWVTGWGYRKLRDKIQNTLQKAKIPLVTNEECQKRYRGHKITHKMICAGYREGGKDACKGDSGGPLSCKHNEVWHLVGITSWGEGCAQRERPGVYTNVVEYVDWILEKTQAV

[6] = molecular target: T4, coagulation Factor VIIa (FVIIa), recombinant (UniProt P08709 61-466); experiment: SPR (Biacore T100), rSimukunin immobilized on CM5
T4 construct: mature
T4 sequence (looked up): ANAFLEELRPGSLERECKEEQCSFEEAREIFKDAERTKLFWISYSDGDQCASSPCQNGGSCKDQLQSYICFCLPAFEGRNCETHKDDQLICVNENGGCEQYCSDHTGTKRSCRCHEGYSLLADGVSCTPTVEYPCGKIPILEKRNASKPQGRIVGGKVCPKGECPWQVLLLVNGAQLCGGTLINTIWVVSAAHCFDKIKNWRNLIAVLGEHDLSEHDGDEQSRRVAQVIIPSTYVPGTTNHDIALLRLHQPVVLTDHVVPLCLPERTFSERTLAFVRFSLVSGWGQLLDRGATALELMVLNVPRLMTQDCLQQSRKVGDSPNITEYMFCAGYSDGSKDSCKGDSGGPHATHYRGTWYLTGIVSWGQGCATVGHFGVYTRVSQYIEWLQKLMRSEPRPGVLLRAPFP

[7] = molecular target: T5, coagulation Factor XIIIa (FXIIIa) (UniProt P00488 39-732, limits assumed); experiment: SPR (Biacore T100), rSimukunin immobilized on CM5
T5 construct: mature
T5 sequence (looked up): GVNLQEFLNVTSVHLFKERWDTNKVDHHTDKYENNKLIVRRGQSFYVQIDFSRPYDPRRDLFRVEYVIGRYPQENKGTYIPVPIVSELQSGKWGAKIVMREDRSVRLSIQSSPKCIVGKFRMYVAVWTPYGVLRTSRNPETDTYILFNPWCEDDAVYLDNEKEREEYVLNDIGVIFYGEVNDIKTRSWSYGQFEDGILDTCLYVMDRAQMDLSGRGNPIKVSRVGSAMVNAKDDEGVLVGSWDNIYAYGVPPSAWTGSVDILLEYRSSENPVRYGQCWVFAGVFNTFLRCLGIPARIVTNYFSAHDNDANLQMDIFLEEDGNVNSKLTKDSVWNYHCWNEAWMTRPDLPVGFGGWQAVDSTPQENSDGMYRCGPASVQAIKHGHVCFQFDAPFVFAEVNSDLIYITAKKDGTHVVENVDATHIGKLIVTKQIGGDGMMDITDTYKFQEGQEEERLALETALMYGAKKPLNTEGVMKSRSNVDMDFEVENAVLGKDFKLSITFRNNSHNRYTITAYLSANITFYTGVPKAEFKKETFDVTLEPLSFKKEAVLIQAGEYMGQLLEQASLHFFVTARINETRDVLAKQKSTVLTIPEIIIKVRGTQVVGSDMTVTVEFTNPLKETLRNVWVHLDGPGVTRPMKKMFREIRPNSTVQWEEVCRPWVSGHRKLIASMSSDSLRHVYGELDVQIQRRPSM

[8] = molecular target: T6, coagulation Factor X (FX), zymogen precursor of FXa (UniProt P00742 41-488); experiment: SPR (Biacore T100), rSimukunin immobilized on CM5
T6 construct: mature; also called zymogenic form of FX
T6 sequence (P00742 41-488 limits assumed): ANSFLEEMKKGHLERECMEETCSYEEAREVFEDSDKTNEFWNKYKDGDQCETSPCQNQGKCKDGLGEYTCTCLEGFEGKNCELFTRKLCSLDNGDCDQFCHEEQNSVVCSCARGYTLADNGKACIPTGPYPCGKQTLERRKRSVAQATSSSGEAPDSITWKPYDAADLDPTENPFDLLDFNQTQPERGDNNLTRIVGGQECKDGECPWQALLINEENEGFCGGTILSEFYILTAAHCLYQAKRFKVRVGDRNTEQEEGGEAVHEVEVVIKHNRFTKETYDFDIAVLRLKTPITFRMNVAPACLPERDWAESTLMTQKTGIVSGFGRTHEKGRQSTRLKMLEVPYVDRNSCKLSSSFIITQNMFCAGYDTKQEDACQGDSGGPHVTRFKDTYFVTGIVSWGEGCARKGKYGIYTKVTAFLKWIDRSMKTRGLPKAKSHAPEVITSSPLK

[9] = molecular target: T3, human activated coagulation factor X …; experiment: SPR (Biacore T100), rSimukunin immobilized on CM5, FXa as analyte, 1:1 Langmuir fit
Experimental: (§1) Data were fitted using a […] binding model (Langmuir). RU: resonance units.
(§2) Surface plasmon resonance (SPR) assays. SPR experiments were conducted using a T100 instrument (Biacore Inc., Uppsala, Sweden) following the manufacturer's instructions. Sensor CM5, amine coupling reagents, and buffers were also purchased from Biacore Inc. (Piscataway, N.J., USA). IBS P (10 mM Hepes, pH 7.4, 150 mM NaCl, and 0.005% (v/v) P20 surfactant) was used as the running buffer for all SPR experiments, which were carried out as previously described (Albrecht et al., 1983, Hoppe Seylers Z Physiol Chem; 364:1697-1702). For analytes, FVIIa (recombinant) was purchased from American Diagnostica (Stamford, Conn.); FX, FXa (human, bovine, mouse), DEGR-FXa (human), des-Gla-FXa (human), FIXa, FXIa, FXIIIa, and thrombin were purchased from Haematologic Technologies, Inc. (Essex Junction, Vt.); elastase (purified from human sputum) was purchased from Molecular Innovations, Inc. (Novi, Mich.). All enzymes were of the highest available purity. For immobilization and kinetic analysis, rSimukunin (10 μg/ml) in acetate buffer pH 5.0 was immobilized over a CM5 sensor via amine coupling, resulting in a final immobilization of 475.3 RU. Kinetic experiments were carried out with a contact time of 180 seconds at a flow rate of 30 μl/minute at 25° C. rSimukunin-FXa complex dissociation was monitored for 1800 seconds, and the sensor surface was regenerated by a pulse of 30 seconds of 20 mM HCl at 30 μl/minute. In other experiments, other coagulation factors or enzymes were used as analytes. Blank flow cells were used to subtract the buffer effect on sensorgrams.

[10] = molecular target: T1, elastase (human; for SPR purified from …); experiment: SPR (Biacore T100), rSimukunin immobilized on CM5, elastase as analyte, 1:1 Langmuir fit
Experimental: as §1, §2

[11] = molecular target: T1, elastase (human; for SPR purified from …); experiment: calculated by Cheng-Prusoff from the enzyme-inhibition IC50 and the substrate Km (250 uM substrate)
Experimental: (§3) The Kₘ for the elastase substrate was 38.5±3.3 μM, and the estimated Kᵢ was ˜0.65 nM. For FXa the substrate Kₘ was 161.6±17.4 μM, and the estimated Kᵢ was ˜2.1 nM. For Cathepsin G the Kₘ was 188±20 μM, and the Kᵢ was 100 nM. A general chymotrypsin substrate was used to assess Cathepsin G activity; as this substrate is not optimized for Cathepsin G it is likely that our measurement of the Kᵢ underestimates the effect of rSimukunin. Further studies of the effect of rSimukunin on Cathepsin G will be performed.
(§4) Enzymes, at the concentrations given in Table 1, were incubated with the indicated concentration of rSimukunin for five minutes at 30° C., followed by addition of substrate (250 μM final concentration). The amount of enzyme used in the assays was the lowest possible to give a linear substrate hydrolysis rate in the assays (r2>0.95). Substrate hydrolysis was followed in a Tecan Infinite M200 96-well plate fluorescence reader (Tecan group Ltd, Switzerland) using 365 nm excitation and 450 nm emission wavelength with a cutoff at 435 nm for 20 min at 30° C. Wells without enzyme were used to monitor spontaneous substrate hydrolysis and protease contamination in the inhibitor preparation. All experiments were performed in triplicate (for each enzyme and each concentration of the inhibitor). […]

[12] = molecular target: T3, human activated coagulation factor X …; experiment: as above
Experimental: as §3, §4

chymase (human) = molecular target: T7, chymase (human) (human, UniProt P23946 22-247); experiment: enzyme inhibition assay, fluorogenic peptide substrate, 500 nM rSimukunin, 1.8 nM enzyme
T7 construct: mature
T7 sequence (looked up): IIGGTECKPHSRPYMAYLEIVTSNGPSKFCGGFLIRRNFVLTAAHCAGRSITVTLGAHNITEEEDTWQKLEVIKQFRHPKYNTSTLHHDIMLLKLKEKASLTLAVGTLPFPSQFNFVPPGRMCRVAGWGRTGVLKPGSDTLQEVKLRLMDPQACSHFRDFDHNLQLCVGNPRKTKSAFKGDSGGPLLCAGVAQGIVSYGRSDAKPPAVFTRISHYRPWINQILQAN
Experimental: Serine protease inhibition assays. rSimukunin (500 nM) was first pre-incubated with each enzyme for 10 min before the addition of the corresponding substrate. The amount of enzyme used in the assays was the lowest possible to give a linear substrate hydrolysis rate in the assays (r²>0.95). After incubation for 5 min at 30° C., substrate hydrolysis rate was followed in a Tecan Infinite M200 96-well plate fluorescence reader (Tecan group Ltd, Switzerland) using 365 nm excitation and 450 nm emission wavelength with a cutoff at 435 nm for 20 min at 30° C. Wells without enzyme were used to monitor spontaneous substrate hydrolysis and protease contamination in the inhibitor preparation. A t-test was used for the statistical analysis of the observed inhibition in the presence of 500 nM rSimukunin and when p<0.05, it was considered as statistically significant.
All enzymes used were of human origin and of the highest available purity. […]

cathepsin G (human) [13] = molecular target: T2, cathepsin G (human); experiment: calculated by Cheng-Prusoff from the enzyme-inhibition IC50 and the substrate Km (250 uM general chymotrypsin substrate)
Experimental: as §3, §4

B1: recombinant Simukunin (rSV-66), Simulium vittatum SV-66 without signal peptide, His-tagged, expressed in E. coli (other)
chain: QENVCNLPVDEGVCRALFKRFYYEPATDSCKEFYYGGCEGNGNRFKSKKECILKCQKNKQLIKTRKRKPKKTTKPPIPIISLD
notes: also called rSimukunin; WT rSimukunin; not shown: His tag(s) from vector pET-30 Ek/LIC ('C-terminal double His tags')
Ratio of IC50 to enzyme concentration [1]: 27.2 | Ratio of IC50 to enzyme concentration (cathepsin G (human) [2]): 32.5 | Ratio of IC50 to enzyme concentration (plasmin (human)): 161 | Ratio of IC50 to enzyme concentration (kallikrein (human)): 1150 | Ratio of IC50 to enzyme concentration [3]: 3790 | Ratio of IC50 to enzyme concentration (skin β-tryptase (human)): 6680 | Ratio of IC50 to enzyme concentration [4]: 52 | Ratio of IC50 to enzyme concentration [5]: 945 | binding result [6]: no binding (tested: 200 nM) | binding result [7]: no binding (tested: 200 nM) | binding result [8]: no binding (tested: 200 nM) | Kd [9]: 3.07 nM | koff [9]: 0.000303 s⁻¹ | kon [9]: 98700 M⁻¹ s⁻¹ | Kd [10]: 0.4 nM | koff [10]: 0.0173 s⁻¹ | kon [10]: 4.3e+07 M⁻¹ s⁻¹ | Ki [11]: ~0.65 nM | Ki [12]: ~2.1 nM | binding result (chymase (human)): binds | Ki (cathepsin G (human) [13]): 100 nM
